This note sets out measurements from patent US20250313626A1 (HARBOUR BIOMED SHANGHAI, published 2025).

Changes are numbered by the printed parent chain.

Test [1] concerns the target T1, CD200R1a on PathHunter Jurkat CD200R1a signaling cells (Eurofins DiscoverX, 93-1136C19) (human, UniProt Q8TD46 25-348).
T1 sequence: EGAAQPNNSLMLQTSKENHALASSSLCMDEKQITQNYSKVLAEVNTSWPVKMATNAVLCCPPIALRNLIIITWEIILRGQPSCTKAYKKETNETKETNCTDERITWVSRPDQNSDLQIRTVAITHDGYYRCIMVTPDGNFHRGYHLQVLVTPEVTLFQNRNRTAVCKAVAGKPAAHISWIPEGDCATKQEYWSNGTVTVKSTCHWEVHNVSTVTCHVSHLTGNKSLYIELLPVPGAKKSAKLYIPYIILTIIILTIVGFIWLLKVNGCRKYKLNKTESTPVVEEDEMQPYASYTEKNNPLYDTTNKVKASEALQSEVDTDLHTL
The experiment in a line: cell-based or functional assay.

Test [2] concerns the target T2, human CD200R1 isoform a on CHOK1 cells (CHOK1/hCD200R1a) (human, UniProt Q8TD46 25-348).
T2 construct: also called CHOK1/CD200R1a
T2 sequence: T1 sequence
Description: flow cytometry, CHOK1/hCD200R1a cells (FITC-Mean); table beside the curves. Here is the method:
(§1) This example is intended to investigate the in vitro binding activity of human anti-CD200R1 monoclonal antibodies to human/Cynomolgus macaques CD200R1a expressed on the surface of cells. The anti-CD200R1 antibodies were produced as described in Example 3.4 and the binding experiments at the cell level were performed using CHOK1/hCD200R1a and CHOK1-cynoCD200R1a.
(§2) Briefly, CHOK1/hCD200R1a cells and CHOK1-cynoCD200R1a cells were digested, and collected, and then were resuspended in PBS containing 2% BSA, respectively. The cell density was adjusted to 1×10⁶ cells/mL. The cells were seeded in a 96-well V-bottom plate (Corning, #3894) at 100 μL/well, followed by the addition of test antibodies and reference antibodies in a series diluted concentration, each at 100 μL/well. The cells were incubated away from light at 4° C. for 1 h. Thereafter, the cells in each well were rinsed twice with 100 μL of pre-cooled PBS containing 2% BSA, and centrifuged at 500 g at 4° C. for 5 min, and then the supernatant was discarded. 100 μL of fluorescent secondary antibody (Alexa Fluor 488-conjugated AffiniPure Goat Anti-Human IgG, Fcγ Fragment Specific, Jackson, #109-545-098, diluted in a 1:1000 ratio) was added in each well, and the plate was incubated away from light at 4° C. for 1 h. The cells in each well were rinsed twice with 100 μL of pre-cooled PBS containing 2% BSA, and centrifuged at 500 g at 4° C. for 5 min, and then the supernatant was discarded. Finally, the cells in each well were resuspended in 200 μL of pre-cooled PBS containing 2% BSA, and the fluorescence signal values were read using a BD CantoII flow cytometer.
In general terms: In flow cytometry, cells or beads pass a laser one at a time.

For test [3], the target named is T2, human CD200R1 isoform a on CHOK1 cells …. Description: flow cytometry blocking assay: antibody titrated against human CD200 binding to CHOK1/hCD200R1a cells.
Test [4] has as its target T3, Cynomolgus macaques CD200R1 isoform a on CHOK1 cells (CHOK1/cynoCD200R1a) (Cynomolgus macaques).
T3 chain: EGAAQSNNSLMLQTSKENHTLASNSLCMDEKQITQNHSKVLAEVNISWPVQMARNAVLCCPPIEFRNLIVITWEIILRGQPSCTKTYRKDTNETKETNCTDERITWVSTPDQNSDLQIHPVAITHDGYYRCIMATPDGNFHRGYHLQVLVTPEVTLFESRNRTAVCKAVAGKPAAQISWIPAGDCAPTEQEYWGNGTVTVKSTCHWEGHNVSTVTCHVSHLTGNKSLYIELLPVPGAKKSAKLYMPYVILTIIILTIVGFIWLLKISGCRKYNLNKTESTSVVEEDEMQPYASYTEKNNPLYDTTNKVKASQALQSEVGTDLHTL
Description: flow cytometry, CHOK1/cynoCD200R1a cells (APC-A Mean); table beside the curves.

Test [5] deals with T3, Cynomolgus macaques CD200R1 isoform a …. Description: flow cytometry, CHOK1/cynoCD200R1a cells; table beside the curves. Here is the method: as §1
as §2, with “100 μL of fluorescent secondary antibody (Alexa Fluor 488-conjugated AffiniPure Goat Anti-Human IgG, Fcγ Fragment Specific, Jackson, #109-545-098, diluted in a 1:1000 ratio) was added in each well, and the plate was incubated away from light at 4° C. for 1 h. The cells in each well were rinsed twice with 100 μL of pre-cooled PBS containing 2% BSA, and centrifuged at 500 g at 4° C. for 5 min, and then the supernatant was discarded.” left out

The target is the same in test [6]. The experiment in a line: flow cytometry, CHOK1/cynoCD200R1a cells; table beside the curves, head without unit, x axis Log [Ab] (nM). Here is the method: as §1
as §2, with “100 μL of fluorescent secondary antibody (Alexa Fluor 488-conjugated AffiniPure Goat Anti-Human IgG, Fcγ Fragment Specific, Jackson, #109-545-098, diluted in a 1:1000 ratio) was added in each well, and the plate was incubated away from light at 4° C. for 1 h. The cells in each well were rinsed twice with 100 μL of pre-cooled PBS containing 2% BSA, and centrifuged at 500 g at 4° C. for 5 min, and then the supernatant was discarded.” left out

Test [7] deals with T2, human CD200R1 isoform a on CHOK1 cells …. The experiment in a line: flow cytometry blocking assay: biotin-labelled human CD200 binding to CHOK1/hCD200R1a cells; y axis Inhibition %.
For test [8] the target is unchanged. Description: flow cytometry blocking assay: antibody titrated against biotin-labelled human CD200 binding to CHOK1/hCD200R1a cells; head prints EC50 without unit, x axis Log [Ab] (nM), y axis Inhibition %.
For test [9] the target is unchanged. Description: flow cytometry, CHOK1/hCD200R1a cells; table beside the curves, head without unit, x axis Log [Ab] (nM). Here is the method:
as §1
as §2, with “100 μL of fluorescent secondary antibody (Alexa Fluor 488-conjugated AffiniPure Goat Anti-Human IgG, Fcγ Fragment Specific, Jackson, #109-545-098, diluted in a 1:1000 ratio) was added in each well, and the plate was incubated away from light at 4° C. for 1 h. The cells in each well were rinsed twice with 100 μL of pre-cooled PBS containing 2% BSA, and centrifuged at 500 g at 4° C. for 5 min, and then the supernatant was discarded.” left out

Test [10] shares this target. Description: flow cytometry, CHOK1/hCD200R1a cells; table beside the curves. Here is the method:
as §1
as §2, with “100 μL of fluorescent secondary antibody (Alexa Fluor 488-conjugated AffiniPure Goat Anti-Human IgG, Fcγ Fragment Specific, Jackson, #109-545-098, diluted in a 1:1000 ratio) was added in each well, and the plate was incubated away from light at 4° C. for 1 h. The cells in each well were rinsed twice with 100 μL of pre-cooled PBS containing 2% BSA, and centrifuged at 500 g at 4° C. for 5 min, and then the supernatant was discarded.” left out

B1: PR006480 (antibody, human IgG1, kappa, L234A L235A)
heavy: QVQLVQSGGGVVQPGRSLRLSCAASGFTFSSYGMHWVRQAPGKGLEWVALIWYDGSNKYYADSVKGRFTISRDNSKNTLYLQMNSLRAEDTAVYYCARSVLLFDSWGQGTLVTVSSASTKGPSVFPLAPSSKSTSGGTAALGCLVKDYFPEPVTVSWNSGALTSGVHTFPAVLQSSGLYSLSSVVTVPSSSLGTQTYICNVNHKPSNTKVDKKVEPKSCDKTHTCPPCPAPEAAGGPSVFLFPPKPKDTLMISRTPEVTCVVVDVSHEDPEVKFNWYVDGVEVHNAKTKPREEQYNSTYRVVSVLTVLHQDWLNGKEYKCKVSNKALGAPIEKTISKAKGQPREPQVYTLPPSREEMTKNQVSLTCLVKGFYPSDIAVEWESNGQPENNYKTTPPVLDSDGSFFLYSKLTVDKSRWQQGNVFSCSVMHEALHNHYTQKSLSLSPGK
light: DIQMTQSPPSLSASVGDRVTITCRASQSISSYLNWFQQKAGKAPKLLISATSNLQSGVPSRFSGSGSGTDFTLTISSLQPEDLATYYCQQSYSSPYTFGQGTKVEIKRTVAAPSVFIFPPSDEQLKSGTASVVCLLNNFYPREAKVQWKVDNALQSGNSQESVTEQDSKDSTYSLSSTLTLSKADYEKHKVYACEVTHQGLSSPVTKSFNRGEC
notes: also called PR6480
As to B1, the “IC50 of the inhibition of CD200-induced PathHunter Jurkat CD200R1a luminescence (CHOK1/hCD200 cells as CD200 source)” value in [1] worked out at 0.654 nM. Moreover, the “MFI(Max)” value in test [2] was 8890.

B2: PR007223 (antibody, human IgG1, kappa)
heavy: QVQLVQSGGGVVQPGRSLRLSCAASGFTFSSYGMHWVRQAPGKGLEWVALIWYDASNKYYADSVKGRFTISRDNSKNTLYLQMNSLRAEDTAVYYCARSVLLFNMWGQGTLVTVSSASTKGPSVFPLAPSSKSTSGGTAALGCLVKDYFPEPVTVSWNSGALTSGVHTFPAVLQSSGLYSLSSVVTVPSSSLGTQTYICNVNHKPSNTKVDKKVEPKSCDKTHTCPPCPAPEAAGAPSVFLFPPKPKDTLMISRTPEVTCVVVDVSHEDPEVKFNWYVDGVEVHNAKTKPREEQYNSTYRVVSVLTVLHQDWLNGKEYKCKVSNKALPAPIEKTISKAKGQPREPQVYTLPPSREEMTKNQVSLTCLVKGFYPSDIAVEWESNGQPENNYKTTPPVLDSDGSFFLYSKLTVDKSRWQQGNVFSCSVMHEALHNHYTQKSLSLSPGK
light: B1 light with M4L, S91T
notes: PTM variant of PR006895 (human IgG1)
For B2, the “IC50 of the inhibition of CD200-induced PathHunter Jurkat CD200R1a luminescence (CHOK1/hCD200 cells as CD200 source)” value in test [1] is 0.578 nM. For the same molecule, in test [3], the “IC50 (read off the curve)” value was roughly 10 nM. Further, the “MFI(Max)” value in test [2] is 9890.

B3: PR007221 (antibody, human IgG1, kappa)
heavy: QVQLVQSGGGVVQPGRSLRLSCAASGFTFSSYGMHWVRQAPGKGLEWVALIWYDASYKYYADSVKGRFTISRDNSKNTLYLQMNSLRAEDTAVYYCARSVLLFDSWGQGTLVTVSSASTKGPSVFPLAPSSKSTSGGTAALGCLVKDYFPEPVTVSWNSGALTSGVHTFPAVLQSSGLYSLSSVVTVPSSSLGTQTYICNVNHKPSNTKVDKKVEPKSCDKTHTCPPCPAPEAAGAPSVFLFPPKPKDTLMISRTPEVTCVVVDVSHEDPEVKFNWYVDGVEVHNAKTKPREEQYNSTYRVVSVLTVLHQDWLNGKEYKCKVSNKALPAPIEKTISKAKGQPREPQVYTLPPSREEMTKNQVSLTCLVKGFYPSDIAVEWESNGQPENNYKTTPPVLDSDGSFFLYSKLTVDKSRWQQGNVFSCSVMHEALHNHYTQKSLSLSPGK
light: B1 light with M4L, S91T, Y92L
notes: as for B2
Regarding B3, in test [2], the “MFI(Max)” value is 11100.

B4: PR002906 (antibody, V domains shown)
VH: QVQLQESGPGLVKPSETLSLTCTVSGYTITSGYDWSWIRQPPGKGLEWIGYINYGGSTNYKPSLGSRVTISVDTSKNQFSLKLSSVTAADTAVYYCARYNEYKSYIYDWYFDFWGQGTLVTVSS
VL: DIQMTQSPSSLSASVGDRVTITCKASKNIRSYLAWYQQKPGKAPKLLIYSGSTLHSGVPSRFSGSGSGTDFTLTISSLQPEDFATYYCQQHHEYPLTFGQGTKVEIKR
notes: also called recombinant IgG1 antibody of huDX182
The term EC50 denotes the concentration giving half of the maximal effect. A lower EC50 goes with an effect from little substance. On to B4, for which the EC50 was determined as 16.4 nM in test [4], 15.5 nM in test [6], 0.463 nM in test [8] and 15.2 nM in test [9]. Also, the “MFI (MAX)” value in test [4] came out at 23900. Further, the “MFI(Max)” value turned out to be 6440 in test [5], 11100 in test [2] and 131000 in [10]. In addition, the “Blocking(Max)” value in [7] turned out to be 96.6%.

B5: PR005509 (antibody, human IgG1, kappa, L234A L235A, V domains shown)
VH: QVQLVESGGGVVQPGRSLRLSCAASGFTFSSYGFHWVRQAPGKGLEWLGLIWSDGSNKYYADSVKGRFTISRDNSKNTLYLQMNSLRAEDTAVYYCARDRIVGAGFDYWGQGTLVTVSS
VL: not shown
For the molecule B5, the “MFI(Max)” value in test [5] stood at 19900; in test [10] it was 101000. Besides, the concentration for a half-maximal effect (EC50) in [6] worked out at 4.2 nM; in test [9], 6.57 nM.

B6: PR007973 (antibody, human IgG1, kappa, V domains shown)
VH: B5 VH with L50I, G55A, A104E
VL: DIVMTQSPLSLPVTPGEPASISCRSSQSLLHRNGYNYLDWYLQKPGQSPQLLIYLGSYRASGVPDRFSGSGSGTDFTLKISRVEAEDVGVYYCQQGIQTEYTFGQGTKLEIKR
notes: PTM variant of PR006839 (human IgG1)
For the molecule B6, the 50% effective concentration (EC50) in test [4] was found to be 3.78 nM; in test [8] it was 0.36 nM. In addition, the “MFI (MAX)” value in test [4] came out at 62500. In addition, the “IC50 (read off the curve)” value in test [3] was roughly 10 nM. Also, the “Blocking(Max)” value in test [7] worked out at 100%.
